For one substance, normalised BoNT/B immunoreactivity (IR, relative to WT) results are on record in doi:10.1101/2021.10.18.464377.

Assay [1] concerns the target Synaptotagmin 2 wild type expressed in HEK 293 or PC12 cells (UniProt P29101). Kind of assay: immunostaining of cells or tissue.
The target of assay [2] is Synaptotagmin 1 wild type expressed in HEK 293 cells (UniProt P21707). The assay is described as follows: immunostaining of cells or tissue.
Sequence of UniProt P21707 (P21707 whole entry): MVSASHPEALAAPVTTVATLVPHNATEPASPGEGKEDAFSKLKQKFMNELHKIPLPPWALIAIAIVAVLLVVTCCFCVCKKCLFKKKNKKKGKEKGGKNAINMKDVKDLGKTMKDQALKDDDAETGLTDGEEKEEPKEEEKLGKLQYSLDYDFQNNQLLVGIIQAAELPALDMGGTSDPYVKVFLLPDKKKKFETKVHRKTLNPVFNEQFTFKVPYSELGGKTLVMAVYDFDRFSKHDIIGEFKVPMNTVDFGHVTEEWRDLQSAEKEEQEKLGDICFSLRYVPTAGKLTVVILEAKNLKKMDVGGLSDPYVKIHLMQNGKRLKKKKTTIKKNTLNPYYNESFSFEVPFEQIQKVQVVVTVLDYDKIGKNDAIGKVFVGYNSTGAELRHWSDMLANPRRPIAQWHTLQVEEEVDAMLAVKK

Sequence of UniProt P29101 (P29101 whole entry): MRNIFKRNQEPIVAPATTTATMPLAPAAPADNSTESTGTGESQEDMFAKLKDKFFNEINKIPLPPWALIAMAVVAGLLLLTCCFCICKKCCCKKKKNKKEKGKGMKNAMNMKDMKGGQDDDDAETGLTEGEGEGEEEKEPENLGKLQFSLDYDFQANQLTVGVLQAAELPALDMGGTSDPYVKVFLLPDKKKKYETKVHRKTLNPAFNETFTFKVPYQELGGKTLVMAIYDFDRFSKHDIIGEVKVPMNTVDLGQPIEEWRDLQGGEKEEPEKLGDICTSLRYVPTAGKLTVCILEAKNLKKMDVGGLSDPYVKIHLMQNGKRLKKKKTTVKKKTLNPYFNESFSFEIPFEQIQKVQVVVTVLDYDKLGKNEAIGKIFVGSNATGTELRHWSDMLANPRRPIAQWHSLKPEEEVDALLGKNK

With “Botulinum neurotoxin serotype B (B1 Okra strain) with non-toxic accessory proteins (complex)”, the normalised BoNT/B immunoreactivity (IR, relative to WT) in assay [1] and in assay [2] was 1 in each case.
